Data taken from PMC5558740, “Absence of CX3CR1 impairs the internalization of Tau by microglia” (Molecular Neurodegeneration, 2017).

Key:
[1] = biological target: T1, Tau42 phosphorylated by GSK-3β (phospho-Tau) (human, UniProt P10636-8 1-441, phosphorylated by GSK-3β; phosphoserine at 396 (detected with anti-p-S396); other sites not stated); test: affinity chromatography; CX3CR1 peptide coupled to CNBr-activated Sepharose 4B; protein (1 mg/ml) loaded in buffer A (0.1 M Mes pH 6.4, 0.5 mM MgCl2, 2 mM EGTA); bound protein eluted with 0.5 M NaCl in buffer A; fractions read by dot immunoblot; conditions: both partners purified
T1 construct: the Cy5-labelled form (phospho-Tau-Cy5) was used for the uptake test on microglia; also called Tau phosphorylated by GSK-3β; source: recombinant Tau42 phosphorylated in vitro by GSK-3β (Sigma), heated 5 min at 100 °C, supernatant collected

[2] = biological target: T2, recombinant human Tau isoform containing 2 N-terminal inserts and 4 microtubule binding repeats (Tau42) (human, UniProt P10636-8 1-441); test: as above; conditions: both partners purified
T2 construct: also called purified Tau; source: recombinant, isolated as described previously [25], purified
T2 sequence (P10636 other isoform, or with tags, fused parts or gaps): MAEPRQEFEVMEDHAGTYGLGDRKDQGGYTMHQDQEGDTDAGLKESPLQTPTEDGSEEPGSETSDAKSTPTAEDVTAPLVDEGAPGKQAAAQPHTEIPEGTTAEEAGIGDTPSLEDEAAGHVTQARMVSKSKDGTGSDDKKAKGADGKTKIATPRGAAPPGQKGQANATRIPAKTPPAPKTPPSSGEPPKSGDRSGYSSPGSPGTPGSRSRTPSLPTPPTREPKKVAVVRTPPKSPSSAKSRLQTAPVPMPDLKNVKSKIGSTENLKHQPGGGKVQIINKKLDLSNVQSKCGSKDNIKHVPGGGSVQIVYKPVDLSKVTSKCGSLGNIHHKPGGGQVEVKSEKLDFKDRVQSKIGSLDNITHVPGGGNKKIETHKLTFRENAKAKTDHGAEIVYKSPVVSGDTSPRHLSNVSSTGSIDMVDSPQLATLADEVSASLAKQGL

T1 sequence (P10636 other isoform, or with tags, fused parts or gaps): as above

binding result [1]: binds
binding result [2]: binds
B1: synthetic CX3CR1 peptide (aa 2-21) containing the binding region to CX3CL1 (peptide)
peptide: DQFPESVTENFEYDDLAEAC
notes: also called synthetic receptor CX3CR1; source: synthetic peptide, bought: Abyntek
